± gives the standard deviation of the averaged measurements.
Tested on: ATP
Test: switch fluorescence ratio, 500 uM ATP over buffer (Cy3 cluster intensity, sum of 5 cycles each) (fold (ratio)); higher = stronger signal-on switching upon ATP binding; sequences stand for … in TCGTCGGCAGCGTCAGATGTGTATAAGAGACAGTTTTTTTTTTTTTTTTTTTTTTTTT…TC
Details: aptamer strand: ATP DNA aptamer (quencher-CACCTGGGGGAGTATTGCGGAGGAAGG + anchor), 100 nM annealed; ATP concentration: 500 uM
In short: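 Cy3-labelled switching-strand clusters on a modified Illumina MiSeq flow-cell were annealed to 100 nM quencher-labelled ATP aptamer, imaged in selection buffer, then imaged after 15 min with 500 uM ATP at 22 °C. Five buffer/ATP cycles ran, with NaOH stripping and re-annealing between them. The fluorescence ratio is summed target-cycle over summed buffer-cycle Cy3 intensity per cluster, averaged per switch-domain sequence. Clusters outside 100-1000 RFU were excluded.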
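Also: ATP exposure 15 min at 22 °C before imaging.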

TGGGGTAAAC
switch fluorescence ratio: 0.997 ± 0.024

GGCGCAGCTG
switch fluorescence ratio: 0.96511 ± 0.0006

GGGAGGGAGG
switch fluorescence ratio: 0.988 ± 0.021

AGGTTAATAT
switch fluorescence ratio: 1 ± 0.043

TAGTGGGTTT
switch fluorescence ratio: 1.01 ± 0.021

TTGTTAAATA
switch fluorescence ratio: 0.98 ± 0.011

CGTGCAGGGG
switch fluorescence ratio: 1.057 ± 0.0013

TATTTATGTT
switch fluorescence ratio: 0.995 ± 0.031

TGCCCCGATA
switch fluorescence ratio: 2.66 ± 2.3

TTGATTTGCA
switch fluorescence ratio: 0.99989 ± 0.00088

AAAGGGCGGA
switch fluorescence ratio: 0.9884 ± 0.009

GGAATGTGGG
switch fluorescence ratio: 0.984 ± 0.042

TTGCGGGCCG
switch fluorescence ratio: 0.967 ± 0.068

TTTTTACCGA
switch fluorescence ratio: 1.014 ± 0.0082

GGGGCGCAGG
switch fluorescence ratio: 0.993 ± 0.011

TGGGGCAGGT
switch fluorescence ratio: 0.997 ± 0.051

CCATACGGGG
switch fluorescence ratio: 0.998 ± 0.023

CCTGAGAACA
switch fluorescence ratio: 1.02 ± 0.031

GGGGGTCTTT
switch fluorescence ratio: 0.99 ± 0.023

GTTTGTGCT
switch fluorescence ratio: 0.988 ± 0.019

AAGCTAATTC
switch fluorescence ratio: 1.186 ± 0.0069

AGGAGGGAG
switch fluorescence ratio: 1.003 ± 0.0093

GGGGTTGTCA
switch fluorescence ratio: 0.99 ± 0.058

AAAAAAATAG
switch fluorescence ratio: 1.03 ± 0.014

TGTGATGCCG
switch fluorescence ratio: 0.976 ± 0.015

CAGGAGAAGG
switch fluorescence ratio: 1.05 ± 0.022

ATTATAAGGT
switch fluorescence ratio: 1.06 ± 0.0055

TCCAACTCCA
switch fluorescence ratio: 1.11 ± 0.0039

TTAGGAAAGG
switch fluorescence ratio: 1.06 ± 0.12

TTAAATCGTT
switch fluorescence ratio: 1.036 ± 0.0076

CGGAGAGATG
switch fluorescence ratio: 1.042 ± 0.0034

GAGCGGGTTG
switch fluorescence ratio: 0.9835 ± 0.0056

CGTTTTTTGT
switch fluorescence ratio: 0.9843 ± 0.002

GATGATGGCG
switch fluorescence ratio: 1.05 ± 0.073

TTAAGGACGT
switch fluorescence ratio: 0.984 ± 0.016

ACTTTTACTC
switch fluorescence ratio: 1.16 ± 0.014

AAACGGGTAG
switch fluorescence ratio: 1.07 ± 0.1

GACCGAGCGT
switch fluorescence ratio: 1.1 ± 0.06

TCAAATCGTT
switch fluorescence ratio: 0.992 ± 0.0074

CCGGAAGCAG
switch fluorescence ratio: 3.95 ± 0.66

TGCTGCGGTG
switch fluorescence ratio: 0.993 ± 0.0084

AATTAAGATA
switch fluorescence ratio: 0.991 ± 0.03

TGAGGAAAGG
switch fluorescence ratio: 1.17 ± 0.25

GATTACTCTG
switch fluorescence ratio: 1.03 ± 0.026

GACGGTGCAT
switch fluorescence ratio: 1.33 ± 0.084

AGAGGTATCG
switch fluorescence ratio: 0.995 ± 0.019

TACGGCAGTG
switch fluorescence ratio: 0.998 ± 0.025

GCAGTGTGCT
switch fluorescence ratio: 0.982 ± 0.031

CGTGTAAATA
switch fluorescence ratio: 0.995 ± 0.015

TTTATCGTTT
switch fluorescence ratio: 1 ± 0.032

TGTTTGTTTC
switch fluorescence ratio: 0.973 ± 0.033

CTTTTGTAAT
switch fluorescence ratio: 1.01 ± 0.014

GGTTGATTGG
switch fluorescence ratio: 0.973 ± 0.014

GGTTGCAAGC
switch fluorescence ratio: 1.05 ± 0.017

TTTTGGAGCG
switch fluorescence ratio: 1.05 ± 0.052

TCGGGGGTGA
switch fluorescence ratio: 1 ± 0.021

AAGCATTAGT
switch fluorescence ratio: 1.05 ± 0.04

AATGGCAGTG
switch fluorescence ratio: 1 ± 0.048

GATAAATAAA
switch fluorescence ratio: 1 ± 0.02

TCTGATGAAT
switch fluorescence ratio: 1.02 ± 0.034

TTTGGTGACT
switch fluorescence ratio: 1.018 ± 0.0063

GATTAAAGCT
switch fluorescence ratio: 1.11 ± 0.039

AGTCAGTTGG
switch fluorescence ratio: 0.967 ± 0.041

CTATACGGCA
switch fluorescence ratio: 1.09 ± 0.011

ATAGCTTGTG
switch fluorescence ratio: 0.996 ± 0.023

CGTCATGTCT
switch fluorescence ratio: 1 ± 0.065

CGGCCTACAG
switch fluorescence ratio: 1.05 ± 0.028

CGGGGCCTAG
switch fluorescence ratio: 1.01 ± 0.058

TAGTGCTTGG
switch fluorescence ratio: 0.9827 ± 0.0087

AAACCCAAAG
switch fluorescence ratio: 1.02 ± 0.045

CAGTTATTGG
switch fluorescence ratio: 0.978 ± 0.038

CTAGCTGCGA
switch fluorescence ratio: 1.08 ± 0.055

TCGAATGGAT
switch fluorescence ratio: 0.991 ± 0.011

GCGTGCGGGC
switch fluorescence ratio: 1.03 ± 0.043

GTGCGGTGGC
switch fluorescence ratio: 1.04 ± 0.038

TTCGTACGAG
switch fluorescence ratio: 1 ± 0.026

TGAGGGGTTT
switch fluorescence ratio: 0.992 ± 0.015

GAGGAGTAGG
switch fluorescence ratio: 1.08 ± 0.036

TAGGTTAAGG
switch fluorescence ratio: 1 ± 0.034

AGGATACCGC
switch fluorescence ratio: 1.12 ± 0.048

TTCGAGCTAA
switch fluorescence ratio: 1.2 ± 0.26

TTTATGGTTT
switch fluorescence ratio: 1 ± 0.031

GTTTTTAACT
switch fluorescence ratio: 1.012 ± 0.0075

GCAAACGGGG
switch fluorescence ratio: 1.07 ± 0.041

TTGTTCGAGG
switch fluorescence ratio: 0.988 ± 0.026

TTCAAATATA
switch fluorescence ratio: 1.003 ± 0.0017

TGTCGGCTGC
switch fluorescence ratio: 1.09 ± 0.015

GTATGGGGCA
switch fluorescence ratio: 1 ± 0.029

CTTGTGGCTT
switch fluorescence ratio: 1.034 ± 0.0061

CCGGTGTAGA
switch fluorescence ratio: 1.01 ± 0.034

TGCTACTGC
switch fluorescence ratio: 1.03 ± 0.015

TATATGGGGT
switch fluorescence ratio: 1 ± 0.042

TACTTTTCAA
switch fluorescence ratio: 1.01 ± 0.011

TTCGTTATAG
switch fluorescence ratio: 1.01 ± 0.044

GGGTTGATGA
switch fluorescence ratio: 1.012 ± 0.0093

ATCAGTATTA
switch fluorescence ratio: 1.02 ± 0.016

TCTTTTTTCC
switch fluorescence ratio: 1.1 ± 0.1

ATTGGTGCT
switch fluorescence ratio: 1.001 ± 0.007

TAGAAATTTG
switch fluorescence ratio: 0.998 ± 0.03

GGGCAAGGAT
switch fluorescence ratio: 1.015 ± 0.0028

GATTATGATT
switch fluorescence ratio: 0.971 ± 0.013

TCCCGTATCC
switch fluorescence ratio: 1.07 ± 0.036

ATCCAGGGGT
switch fluorescence ratio: 1.06 ± 0.022

TCGTTTGCGT
switch fluorescence ratio: 0.984 ± 0.032

ATGCTGCCTG
switch fluorescence ratio: 1.01 ± 0.019

TGCGAGGGGA
switch fluorescence ratio: 1.01 ± 0.032

TTATGTAAGG
switch fluorescence ratio: 0.971 ± 0.014

GGAAATAAAA
switch fluorescence ratio: 1.22 ± 0.24

CGAGGGAGTT
switch fluorescence ratio: 0.986 ± 0.044

GGGGTTTATC
switch fluorescence ratio: 1.01 ± 0.04

TGTTTGGTGC
switch fluorescence ratio: 1.54 ± 0.8

GGGGATTAGT
switch fluorescence ratio: 0.997 ± 0.043

GAGAAGCAGT
switch fluorescence ratio: 1 ± 0.024

TAAAGGTAAT
switch fluorescence ratio: 1.01 ± 0.024

TTTTTTTAAT
switch fluorescence ratio: 1 ± 0.028

TTGTAATCAG
switch fluorescence ratio: 0.966 ± 0.045

CTGTTAGGCG
switch fluorescence ratio: 0.9676 ± 0.0092

GACGACTTGA
switch fluorescence ratio: 1.02 ± 0.042

TAATTTAAAG
switch fluorescence ratio: 1 ± 0.041

AGGGAGGGTA
switch fluorescence ratio: 0.9889 ± 0.0098

TCGACTGCGT
switch fluorescence ratio: 1.056 ± 0.005

TAAGGTGGTT
switch fluorescence ratio: 0.976 ± 0.034

TTTAATCGAG
switch fluorescence ratio: 1.04 ± 0.037

TAAACCGAGC
switch fluorescence ratio: 1.73 ± 0.27

AGGGCATAGG
switch fluorescence ratio: 0.9652 ± 0.0066

TTGCCGGGTT
switch fluorescence ratio: 1.17 ± 0.17

AATTTATAGC
switch fluorescence ratio: 0.977 ± 0.034

GAACGTCCAG
switch fluorescence ratio: 0.99 ± 0.027

GAGGGTGTGG
switch fluorescence ratio: 1.02 ± 0.022

AATTAGGAGT
switch fluorescence ratio: 1.06 ± 0.079

GATGTAAAGC
switch fluorescence ratio: 1.02 ± 0.06

AATACTACAG
switch fluorescence ratio: 1.08 ± 0.024

CGCTCAAAGG
switch fluorescence ratio: 1.03 ± 0.015

TTAATGGGGT
switch fluorescence ratio: 1 ± 0.039

AGCTCTAAAT
switch fluorescence ratio: 1.04 ± 0.068

GAGGGTTTGG
switch fluorescence ratio: 0.989 ± 0.037

GGGCGGTCTT
switch fluorescence ratio: 1.06 ± 0.097

GGGAAGGGGT
switch fluorescence ratio: 1.01 ± 0.055

GGGATAGAGA
switch fluorescence ratio: 1.02 ± 0.03

ATTTAATCCT
switch fluorescence ratio: 1.09 ± 0.038

TCTTCGACCG
switch fluorescence ratio: 1.31 ± 0.28

TTGGGGATAA
switch fluorescence ratio: 1.07 ± 0.09

ATAGGAGTAG
switch fluorescence ratio: 0.993 ± 0.036

AGCAACCGGT
switch fluorescence ratio: 1.1 ± 0.016

ACAGTAATGG
switch fluorescence ratio: 1.05 ± 0.041

CGCCTGGCGT
switch fluorescence ratio: 0.9568 ± 0.0077

GGGAAAGTGG
switch fluorescence ratio: 1.012 ± 0.008

AGCAGGGAGC
switch fluorescence ratio: 1.01 ± 0.021

TTTCAAGTAC
switch fluorescence ratio: 1.49 ± 0.21

GAATTTATTT
switch fluorescence ratio: 0.999 ± 0.025

CAGTGGGGGA
switch fluorescence ratio: 0.993 ± 0.022

GTCTGAACGT
switch fluorescence ratio: 0.995 ± 0.081

TTAAGAATGC
switch fluorescence ratio: 1.07 ± 0.12

GCTTGTTTGT
switch fluorescence ratio: 1.02 ± 0.024

ACGTTTAGTG
switch fluorescence ratio: 1.02 ± 0.016

CGACTAGCGA
switch fluorescence ratio: 1.4082 ± 0.00063

TTAGTAAGGC
switch fluorescence ratio: 1.22 ± 0.2

GGGGACATAA
switch fluorescence ratio: 0.997 ± 0.011

AACGGGGAGC
switch fluorescence ratio: 0.983 ± 0.047

CAGAGTAATA
switch fluorescence ratio: 1.45 ± 0.1

TAGGTGTAGG
switch fluorescence ratio: 1.01 ± 0.028

TGGCGGTAGT
switch fluorescence ratio: 1.06 ± 0.056

GGGATTGTTG
switch fluorescence ratio: 0.995 ± 0.041

GAGGGAAGGG
switch fluorescence ratio: 0.994 ± 0.011

GGCTTACAGT
switch fluorescence ratio: 0.9941 ± 0.0061

GATGATGTTT
switch fluorescence ratio: 0.973 ± 0.039

TTTGTGAAAG
switch fluorescence ratio: 1.008 ± 0.006

ACTAGGGGGG
switch fluorescence ratio: 1.01 ± 0.022

TGACAATCCT
switch fluorescence ratio: 1.05 ± 0.016

TGATTATTTT
switch fluorescence ratio: 0.991 ± 0.016

ACTGGCGTGC
switch fluorescence ratio: 1.04 ± 0.07

ATGTGGTCT
switch fluorescence ratio: 1.02 ± 0.03

TTTTTAGTAA
switch fluorescence ratio: 0.979 ± 0.028

TTACGGTATA
switch fluorescence ratio: 1.17 ± 0.038

AATACTGTGC
switch fluorescence ratio: 0.947 ± 0.064

AAAGGGTCAT
switch fluorescence ratio: 0.9918 ± 0.0086

CCAAGCGCCC
switch fluorescence ratio: 1.63 ± 0.23

TTTGGGTATC
switch fluorescence ratio: 0.982 ± 0.041

GAAAGTAACC
switch fluorescence ratio: 1.05 ± 0.021

AATTGGAATA
switch fluorescence ratio: 0.956 ± 0.038

CGGGTTTCAC
switch fluorescence ratio: 1 ± 0.003

TATACGGCAT
switch fluorescence ratio: 1.119 ± 0.0049

TTTTTAATGC
switch fluorescence ratio: 0.979 ± 0.034

CGCACCGGGT
switch fluorescence ratio: 1.05 ± 0.015

TTTACAAGGT
switch fluorescence ratio: 1.03 ± 0.014

CTCGGGCATT
switch fluorescence ratio: 1.23 ± 0.052

TACTTAAGTT
switch fluorescence ratio: 1.01 ± 0.019

AGGGCCAGTC
switch fluorescence ratio: 0.998 ± 0.074

TTAACCCTTT
switch fluorescence ratio: 1.02 ± 0.021

TATTGCGGGG
switch fluorescence ratio: 1.2 ± 0.42

AGGGGGGAAG
switch fluorescence ratio: 0.989 ± 0.023

TAGATTCAGG
switch fluorescence ratio: 1.004 ± 0.0054

TAGCGTTAGG
switch fluorescence ratio: 1.029 ± 0.0049

TGGTCTTAGA
switch fluorescence ratio: 1.01 ± 0.012

TAGGATTCTC
switch fluorescence ratio: 0.979 ± 0.023

TAAGGTTGGC
switch fluorescence ratio: 1.02 ± 0.04

TTTTGCGAGG
switch fluorescence ratio: 1.03 ± 0.014

TCAGGGGTTT
switch fluorescence ratio: 1.3 ± 0.53

TGGGACGGGT
switch fluorescence ratio: 0.968 ± 0.052

CCAGCGGGGC
switch fluorescence ratio: 1.05 ± 0.019
